Reference: US20250270295A1

Target: soluble gp34 wild type ectodomain, V5-His tagged (sgp34wt-V5-His) (HCMV strain AD169)
Assay: blocking of sgp34wt binding to immobilized human IgG, ELISA

mouse IgG1 isotype antibody
IC50: 9.69 µg/mL
